Biological target: GST-Nxf2 first LRR region (1-285) (UniProt Q9VV73 1-285)
Assay: EMSA

Sequence of GST-Nxf2 first LRR region (1-285) (Q9VV73 1-285): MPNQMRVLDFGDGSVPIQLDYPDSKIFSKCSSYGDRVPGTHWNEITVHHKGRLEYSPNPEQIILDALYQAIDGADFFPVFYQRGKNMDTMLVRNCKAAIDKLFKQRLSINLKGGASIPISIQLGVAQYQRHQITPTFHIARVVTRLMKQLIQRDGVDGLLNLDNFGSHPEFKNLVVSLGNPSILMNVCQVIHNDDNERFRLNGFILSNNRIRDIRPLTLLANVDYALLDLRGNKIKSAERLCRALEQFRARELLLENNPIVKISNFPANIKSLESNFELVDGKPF

B1: 16-mer ssRNA (ssRNA)
RNA: AGCACCGUAAAGACGC
B1: binds.

From paper doi:10.1101/605725
